Test results reported in US20040053383A1, “Crystals of cytochrome P450 2C9, structures thereof and their use” (ASTEX TECHNOLOGY LTD., priority 2001, published 2004).

Assays:
[1] = target: 2C19 (Homo sapiens, UniProt P33261); settings: cited from earlier work
[2] = tested on: P450 2C9; type: biochemical, human
Method: Activity assays on P450 2C9 were performed in a 96-well plate assay format with a Fluoroscan Ascent FL Instruments (Labsystem), using the 7-methoxy-4-(trifluoromethyl)-coumarin as a fluorescent substrate.

[3] = tested on: P450 2C9; test: Functionality assay with methoxy-4-(trifluoromethyl)-coumarin as fluorescent substrate (Examples 6 and 8); type: biochemical, human; settings: 140 μM methoxy-4-(trifluoromethyl)-coumarin, 37° C.
Method: Activity assays on P450 2C9 were performed in a 96-well plate assay format with a Fluoroscan Ascent FL Instruments (Labsystem), using the methoxy-4-(trifluoromethyl)-coumarin as a fluorescent substrate.
(§1) Fifteen pmoles of P450 were reconstituted with 0.1 unit of purified human oxidoreductase, in presence of 140 μM of substrate methoxy-4-(trifluoromethyl)-coumarin, a NADPH regenerating system that includes 0.15 mM NADP^+, 0.38 mM Glucose-6-phosphate and 2.9 unit/ml glucose-6-phosphate dehydrogenase in 170 μl final volume of 25 mM KPi, pH 7.4, 0.38 mM MgCl2 Incubations were performed at 37° C. for several minutes and 7-hydroxy-4-(trifluoromethyl)-coumarin was used as metabolite standard to determinate the metabolic rate. The excitation and emission wavelengths used were respectively 409 and 530 nm.
as §1, with “MgCl2.” for “MgCl2”, “The excitation and emission wavelengths used were respectively 409 and 530 nm.” left out

Molecule	7-MFC [1] [min⁻¹]	7-MFC [2] [min⁻¹]	activity with 2C9 substrate [3] [pmol/min/pmol P450]
2C19: human cytochrome P450 2C19, published data (protein, UniProt P33261 1-490, looked up) Cytochrome P450 2C19: MDPFVVLVLCLSCLLLLSIWRQSSGRGKLPPGPTPLPVIGNILQIDIKDVSKSLTNLSKIYGPVFTLYFGLERMVVLHGYEVVKEALIDLGEEFSGRGHFPLAERANRGFGIVFSNGKRWKEIRRFSLMTLRNFGMGKRSIEDRVQEEARCLVEELRKTKASPCDPTFILGCAPCNVICSIIFQKRFDYKDQQFLNLMEKLNENIRIVSTPWIQICNNFPTIIDYFPGTHNKLLKNLAFMESDILEKVKEHQESMDINNPRDFIDCFLIKMEKEKQNQQSEFTIENLVITAADLLGAGTETTSTTLRYALLLLLKHPEVTAKVQEEIERVIGRNRSPCMQDRGHMPYTDAVVHEVQRYIDLIPTSLPHAVTCDVKFRNYLIPKGTTILTSLTSVLHDNKEFPNPEMFDPRHFLDEGGNFKKSNYFMPFSAGKRICVGEGLARMELFLFLTFILQNFNLKSLIDPKDLDTTPVVNGFASVPPFYQLCFIPV	2.98	–	–
Clone 1155: 2C9-FGloop with the substitution Lys206Glu (protein) MAKKTSSKGRPPGPTPLPVIGNILQIGIKDISKSLTNLSKVYGPVFTLYFGLKPIVVLHGYEAVKEALIDLGEEFSGRGIFPLAERANRGFGIVFSNGKKWKEIRRFSLMTLRNFGMGKRSIEDRVQEEARCLVEELRKTKASPCDPTFILGCAPCNVICSIIFHKRFDYKDQQFLNLMEKLNENIEILSSPWIQVYNNFPALLDYFPGTHNKLLKNVAFMKSYILEKVKEHQESMDMNNPQDFIDCFLMKMEKEKHNQPSEFTIESLENTAVDLFGAGTETTSTTLRYALLLLLKHPEVTAKVQEEIERVIGRNRSPCMQDRSHMPYTDAVVHEVQRYIDLLPTSLPHAVTCDIKFRNYLIPKGTTILISLTSVLHDNKEFPNPEMFDPHHFLDEGGNFKKSKYFMPFSAGKRICVGEALAGMELFLFLTSILQNFNLKSLVDPKNLDTTPVVNGFASVPPFYQLCFIPVHHHH	–	0.23	0.083
